{
  "source": "patent US6852907",
  "molecular_target": "T1, BV1 movement protein, untagged (tomato leaf curl virus (New Delhi)) (UniProt A0A143TU21)",
  "T1 sequence": "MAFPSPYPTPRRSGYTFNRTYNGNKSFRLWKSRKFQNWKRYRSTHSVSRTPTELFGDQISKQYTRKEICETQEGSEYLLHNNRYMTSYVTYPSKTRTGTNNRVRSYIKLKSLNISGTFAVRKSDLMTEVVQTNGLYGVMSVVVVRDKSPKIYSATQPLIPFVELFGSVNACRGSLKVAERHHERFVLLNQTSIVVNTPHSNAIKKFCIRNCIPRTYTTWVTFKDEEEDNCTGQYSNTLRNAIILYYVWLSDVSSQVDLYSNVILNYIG",
  "test": "cell_activity",
  "details": "ssDNA accumulation in BY2 protoplasts (indirect), range 50-121",
  "data": [
    {"substance": "ToLCV-Nde A component viral ssDNA (CP-replacement constructs)", "values": [
      {"measurement": "binding signal (% of wild type ssDNA)", "value": 86}
    ]}
  ]
}
